Results reported in patent US9382311.

Target: T1, YU2 gp120 (HIV-1, UniProt P35961 32-498)
T1 construct: domain: gp120
Experiment: ELISA (FIG. 3)

B1: VRC-PG-04 (antibody, V domains shown)
VH: QVQLVQSGSGVKKPGASVRVSCWTSEDIFERTELIHWVRQAPGQGLEWIGWVKTVTGAVNFGSPDFRQRVSLTRDRDLFTAHMDIRGLTQGDTATYFCARQKFYTGGQGWYFDLWGRGTLIVVSS
VL: EIVLTQSPGTLSLSPGETASLSCTAASYGHMTWYQKKPGQPPKLLIFATSKRASGIPDRFSGSQFGKQYTLTITRMEPEDFARYYCQQLEFFGQGTRLEIR
notes: also called PGV04
binding result: binds
